According to US20130005646A1 (Novo Nordisk, published 2013):
Starred links: 1 amine or outer side, 2 acyl side, 3 side chain; linkers in the order of their positions; H or OH if unused. Positions of bridges follow the written chain, without caps; N, C: chain ends. Groups on a side chain read outwards from the residue. No end group written: not given here. *: point of attachment. X1 = (S)‑4‑Carboxy‑4‑(19-carboxynonadecanoylamino)butyryl, O=C(O)CCCCCCCCCCCCCCCCCCC(=O)N[C@@H](CCC(=O)*)C(=O)O; C20 diacid = O=C(O)CCCCCCCCCCCCCCCCCCC(=O)*; γGlu = O=C(O)[C@H](CCC(=O)[*:2])N[*:1]; AEEA = NCCOCCOCC(=O)O

T1: human calcitonin (a) receptor (human, UniProt P30988 25-474)
T1 sequence (looked up): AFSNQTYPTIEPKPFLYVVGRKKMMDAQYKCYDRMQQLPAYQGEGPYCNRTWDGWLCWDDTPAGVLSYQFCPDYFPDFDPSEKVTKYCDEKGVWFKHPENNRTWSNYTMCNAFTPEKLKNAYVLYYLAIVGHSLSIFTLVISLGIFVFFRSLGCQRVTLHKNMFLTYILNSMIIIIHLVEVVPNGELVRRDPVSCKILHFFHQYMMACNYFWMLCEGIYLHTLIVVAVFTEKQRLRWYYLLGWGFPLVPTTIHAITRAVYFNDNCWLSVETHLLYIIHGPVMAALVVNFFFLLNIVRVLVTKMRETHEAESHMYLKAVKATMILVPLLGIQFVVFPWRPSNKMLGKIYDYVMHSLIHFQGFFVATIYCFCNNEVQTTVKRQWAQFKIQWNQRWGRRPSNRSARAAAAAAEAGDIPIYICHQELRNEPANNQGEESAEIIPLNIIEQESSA

T2: human amylin 3(a) receptor (human calcitonin receptor + RAMP-3) (human, UniProt P30988 25-474; O60896 24-148)
T2 sequence (looked up) 1: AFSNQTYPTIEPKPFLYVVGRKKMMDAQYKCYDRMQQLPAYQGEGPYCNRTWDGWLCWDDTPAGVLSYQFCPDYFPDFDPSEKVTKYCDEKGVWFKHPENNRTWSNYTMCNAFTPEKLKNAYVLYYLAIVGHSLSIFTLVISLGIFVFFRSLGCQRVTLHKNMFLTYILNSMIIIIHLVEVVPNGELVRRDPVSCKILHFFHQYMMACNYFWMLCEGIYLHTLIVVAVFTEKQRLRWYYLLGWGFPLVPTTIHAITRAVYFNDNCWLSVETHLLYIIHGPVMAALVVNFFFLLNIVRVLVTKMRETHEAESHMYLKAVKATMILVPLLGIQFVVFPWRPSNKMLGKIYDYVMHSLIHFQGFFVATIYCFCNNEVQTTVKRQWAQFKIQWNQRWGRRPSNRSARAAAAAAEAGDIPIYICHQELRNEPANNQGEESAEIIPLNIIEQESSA
T2 sequence (looked up) 2: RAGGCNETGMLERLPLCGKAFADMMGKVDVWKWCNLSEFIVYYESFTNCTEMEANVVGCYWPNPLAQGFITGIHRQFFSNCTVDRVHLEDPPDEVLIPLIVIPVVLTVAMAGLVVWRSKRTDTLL


Legend:
[1] = molecular target: T1, human calcitonin (a) receptor; test: cell-based or functional assay
[2] = molecular target: T2, human amylin 3(a) receptor (human …); test: cell-based or functional assay

Binder | CTa receptor human EC50 [1] | Amylin receptor human EC50 [2]
{C20 diacid-γGlu}-KCNTATCATQRLAEFLVHSSQNFGPILPPTNVGSQTP-NH2 (disulfide 2-7; SMILES CC[C@H](C)[C@H](NC(=O)[C@@H]1CCCN1C(=O)CNC(=O)[C@H](Cc1ccccc1)NC(=O)[C@H](CC(N)=O)NC(=O)[C@H](CCC(N)=O)NC(=O)[C@H](CO)NC(=O)[C@H](CO)NC(=O)[C@H](Cc1c[nH]cn1)NC(=O)[C@@H](NC(=O)[C@H](CC(C)C)NC(=O)[C@H](Cc1ccccc1)NC(=O)[C@H](CCC(=O)O)NC(=O)[C@H](C)NC(=O)[C@H](CC(C)C)NC(=O)[C@H](CCCNC(=N)N)NC(=O)[C@H](CCC(N)=O)NC(=O)[C@@H](NC(=O)[C@H](C)NC(=O)[C@@H]1CSSC[C@H](NC(=O)[C@H](CCCCN)NC(=O)CC[C@H](NC(=O)CCCCCCCCCCCCCCCCCCC(=O)O)C(=O)O)C(=O)N[C@@H](CC(N)=O)C(=O)N[C@@H]([C@@H](C)O)C(=O)N[C@@H](C)C(=O)N[C@@H]([C@@H](C)O)C(=O)N1)[C@@H](C)O)C(C)C)C(=O)N[C@@H](CC(C)C)C(=O)N1CCC[C@H]1C(=O)N1CCC[C@H]1C(=O)N[C@H](C(=O)N[C@@H](CC(N)=O)C(=O)N[C@H](C(=O)NCC(=O)N[C@@H](CO)C(=O)N[C@@H](CCC(N)=O)C(=O)N[C@H](C(=O)N1CCC[C@H]1C(N)=O)[C@@H](C)O)C(C)C)[C@@H](C)O) [N-alpha-[(S)-4-Carboxy-4-(19-carboxynonadecanoylamino)butyryl]-[Glu14,Gln21,Gln35,Pro37]-pramlintide] | 58.5 pM | 108 pM
KCNTATCATQRLAEFLVHSSK([AEEA-AEEA-γGlu-19‑carboxyheptadecanoyl])NFGPILSRTNVGSHTY-NH2 (disulfide 2-7) | 229 pM | 540 pM
KCNTATCATQRLAEFLVRSSK([AEEA-AEEA-γGlu-19‑carboxyheptadecanoyl])NFGPILSRTNVGSRTY-NH2 (disulfide 2-7) | 732 pM | 344 pM
KCNTATCATQRLAEFLHHSSK([AEEA-AEEA-γGlu-19‑carboxyheptadecanoyl])NFGPILSSTNVGSHTY-NH2 (disulfide 2-7) | 319 pM | 1030 pM
KCNTATCATQRLANFLHHSSK([AEEA-AEEA-γGlu-19‑carboxyheptadecanoyl])NFGPILSPTNVGSHTY-NH2 (disulfide 2-7) | 889 pM | 482 pM
{C20 diacid-γGlu}-KCNTATCATQRLAEFLHHSSTNFGPILPPTNVGSNTP-NH2 (disulfide 2-7; SMILES CC[C@H](C)[C@H](NC(=O)[C@@H]1CCCN1C(=O)CNC(=O)[C@H](Cc1ccccc1)NC(=O)[C@H](CC(N)=O)NC(=O)[C@@H](NC(=O)[C@H](CO)NC(=O)[C@H](CO)NC(=O)[C@H](Cc1c[nH]cn1)NC(=O)[C@H](Cc1c[nH]cn1)NC(=O)[C@H](CC(C)C)NC(=O)[C@H](Cc1ccccc1)NC(=O)[C@H](CCC(=O)O)NC(=O)[C@H](C)NC(=O)[C@H](CC(C)C)NC(=O)[C@H](CCCNC(=N)N)NC(=O)[C@H](CCC(N)=O)NC(=O)[C@@H](NC(=O)[C@H](C)NC(=O)[C@@H]1CSSC[C@H](NC(=O)[C@H](CCCCN)NC(=O)CC[C@H](NC(=O)CCCCCCCCCCCCCCCCCCC(=O)O)C(=O)O)C(=O)N[C@@H](CC(N)=O)C(=O)N[C@@H]([C@@H](C)O)C(=O)N[C@@H](C)C(=O)N[C@@H]([C@@H](C)O)C(=O)N1)[C@@H](C)O)[C@@H](C)O)C(=O)N[C@@H](CC(C)C)C(=O)N1CCC[C@H]1C(=O)N1CCC[C@H]1C(=O)N[C@H](C(=O)N[C@@H](CC(N)=O)C(=O)N[C@H](C(=O)NCC(=O)N[C@@H](CO)C(=O)N[C@@H](CC(N)=O)C(=O)N[C@H](C(=O)N1CCC[C@H]1C(N)=O)[C@@H](C)O)C(C)C)[C@@H](C)O) [N-alpha-[(S)-4-Carboxy-4-(19-carboxynonadecanoylamino)butyryl]-[Glu14,His17,Thr21,Pro37]-pramlintide] | 59.5 pM | 91 pM
X1-HCNTATCATQRLAEFLVRSSNNFGPILPPTNVGSNTP-NH2 (disulfide 2-7; SMILES CC[C@H](C)[C@H](NC(=O)[C@@H]1CCCN1C(=O)CNC(=O)[C@H](Cc1ccccc1)NC(=O)[C@H](CC(N)=O)NC(=O)[C@H](CC(N)=O)NC(=O)[C@H](CO)NC(=O)[C@H](CO)NC(=O)[C@H](CCCNC(=N)N)NC(=O)[C@@H](NC(=O)[C@H](CC(C)C)NC(=O)[C@H](Cc1ccccc1)NC(=O)[C@H](CCC(=O)O)NC(=O)[C@H](C)NC(=O)[C@H](CC(C)C)NC(=O)[C@H](CCCNC(=N)N)NC(=O)[C@H](CCC(N)=O)NC(=O)[C@@H](NC(=O)[C@H](C)NC(=O)[C@@H]1CSSC[C@H](NC(=O)[C@H](Cc2c[nH]cn2)NC(=O)CC[C@H](NC(=O)CCCCCCCCCCCCCCCCCCC(=O)O)C(=O)O)C(=O)N[C@@H](CC(N)=O)C(=O)N[C@@H]([C@@H](C)O)C(=O)N[C@@H](C)C(=O)N[C@@H]([C@@H](C)O)C(=O)N1)[C@@H](C)O)C(C)C)C(=O)N[C@@H](CC(C)C)C(=O)N1CCC[C@H]1C(=O)N1CCC[C@H]1C(=O)N[C@H](C(=O)N[C@@H](CC(N)=O)C(=O)N[C@H](C(=O)NCC(=O)N[C@@H](CO)C(=O)N[C@@H](CC(N)=O)C(=O)N[C@H](C(=O)N1CCC[C@H]1C(N)=O)[C@@H](C)O)C(C)C)[C@@H](C)O) [N-alpha-[(S)-4-Carboxy-4-(19-carboxynonadecanoylamino)butyryl]-[His1,Glu14,Arg18,Pro37]-pramlintide] | 22 pM | 41.5 pM
KCNTATCATQRLANFLHHSSNNFGK([AEEA-AEEA-γGlu-19‑carboxyheptadecanoyl])ILSSTNVGSHTY-NH2 (disulfide 2-7) | 114 pM | 198 pM

The remaining lines, values ahead:

CTa receptor human EC50 [1] | Amylin receptor human EC50 [2] | Binder
83 pM | 80.5 pM | {C20 diacid-γGlu}-KCNTATCATQKLAEFLHHSSNNFGPILPPTNVGSNTP-NH2 (disulfide 2-7; SMILES CC[C@H](C)[C@H](NC(=O)[C@@H]1CCCN1C(=O)CNC(=O)[C@H](Cc1ccccc1)NC(=O)[C@H](CC(N)=O)NC(=O)[C@H](CC(N)=O)NC(=O)[C@H](CO)NC(=O)[C@H](CO)NC(=O)[C@H](Cc1c[nH]cn1)NC(=O)[C@H](Cc1c[nH]cn1)NC(=O)[C@H](CC(C)C)NC(=O)[C@H](Cc1ccccc1)NC(=O)[C@H](CCC(=O)O)NC(=O)[C@H](C)NC(=O)[C@H](CC(C)C)NC(=O)[C@H](CCCCN)NC(=O)[C@H](CCC(N)=O)NC(=O)[C@@H](NC(=O)[C@H](C)NC(=O)[C@@H]1CSSC[C@H](NC(=O)[C@H](CCCCN)NC(=O)CC[C@H](NC(=O)CCCCCCCCCCCCCCCCCCC(=O)O)C(=O)O)C(=O)N[C@@H](CC(N)=O)C(=O)N[C@@H]([C@@H](C)O)C(=O)N[C@@H](C)C(=O)N[C@@H]([C@@H](C)O)C(=O)N1)[C@@H](C)O)C(=O)N[C@@H](CC(C)C)C(=O)N1CCC[C@H]1C(=O)N1CCC[C@H]1C(=O)N[C@H](C(=O)N[C@@H](CC(N)=O)C(=O)N[C@H](C(=O)NCC(=O)N[C@@H](CO)C(=O)N[C@@H](CC(N)=O)C(=O)N[C@H](C(=O)N1CCC[C@H]1C(N)=O)[C@@H](C)O)C(C)C)[C@@H](C)O) [N-alpha-[(S)-4-Carboxy-4-(19-carboxynonadecanoylamino)butyryl]-[Lys11,Glu14,His17,Pro37]-pramlintide]
67.5 pM | 209 pM | K([γGlu-C20 diacid])CNTATCATQRLAEFLHHSSQNFGAPLSSTNVGSNTP-NH2 (disulfide 2-7; N-terminus assumed; SMILES CC(C)C[C@H](NC(=O)[C@H](CCCNC(=N)N)NC(=O)[C@H](CCC(N)=O)NC(=O)[C@@H](NC(=O)[C@H](C)NC(=O)[C@@H]1CSSC[C@H](NC(=O)[C@@H](N)CCCCNC(=O)CC[C@H](NC(=O)CCCCCCCCCCCCCCCCCCC(=O)O)C(=O)O)C(=O)N[C@@H](CC(N)=O)C(=O)N[C@@H]([C@@H](C)O)C(=O)N[C@@H](C)C(=O)N[C@@H]([C@@H](C)O)C(=O)N1)[C@@H](C)O)C(=O)N[C@@H](C)C(=O)N[C@@H](CCC(=O)O)C(=O)N[C@@H](Cc1ccccc1)C(=O)N[C@@H](CC(C)C)C(=O)N[C@@H](Cc1c[nH]cn1)C(=O)N[C@@H](Cc1c[nH]cn1)C(=O)N[C@@H](CO)C(=O)N[C@@H](CO)C(=O)N[C@@H](CCC(N)=O)C(=O)N[C@@H](CC(N)=O)C(=O)N[C@@H](Cc1ccccc1)C(=O)NCC(=O)N[C@@H](C)C(=O)N1CCC[C@H]1C(=O)N[C@@H](CC(C)C)C(=O)N[C@@H](CO)C(=O)N[C@@H](CO)C(=O)N[C@H](C(=O)N[C@@H](CC(N)=O)C(=O)N[C@H](C(=O)NCC(=O)N[C@@H](CO)C(=O)N[C@@H](CC(N)=O)C(=O)N[C@H](C(=O)N1CCC[C@H]1C(N)=O)[C@@H](C)O)C(C)C)[C@@H](C)O)
347 pM | 625 pM | KCNTATCATQRLAEFLHHSSK([AEEA-AEEA-γGlu-19‑carboxyheptadecanoyl])NFGPILSPTNVGSHTY-NH2 (disulfide 2-7)
110 pM | 301 pM | KCNTATCATQRLAEFLHHSSNNFGK([AEEA-AEEA-γGlu-19‑carboxyheptadecanoyl])ILSSTNVGSHTY-NH2 (disulfide 2-7)
